The target of assay [1] is human insulin receptor isoform B (IR-B) (human) (UniProt P06213).
Assay [2] concerns the target Ala(B25)-Insulin (human).
For assay [3], the target named is Glu(A14)Des(B30)-Insulin (human).
Assay [4] deals with Glu(A14)Ile(B25)Des(B30)-Insulin (human).
For assay [5], the target named is Glu(A14)Val(B16)Des(B30)-Insulin (human).
In assay [6] the target is Glu(A14)Val(B16)Val(B25)Des(B30)-Insulin (human).
Assay [7] concerns the target Glu(A14)Val(B25)Des(B30)-Insulin (human).
For assay [8], the target named is Human Insulin (wild-type) (human).
Assay [9] addresses Val(B25)Des(B30)-Insulin (human).
For assay [10], the target named is human insulin receptor isoform B (IR-B) (human) (UniProt P06213). Kind of assay: SPA competition with [125I]-labelled human insulin, plasma membranes of CHO cells overexpressing the IR; 0 means below the detection limit.
For assay [11] the target is unchanged. The assay can be described thus: SPA competition with [125I]-labelled human insulin, plasma membranes of CHO cells overexpressing the IR.
Assay [12] has the same target. The assay can be described thus: SPA competition with [125I]-labelled human insulin, plasma membranes of CHO cells overexpressing the IR; category B (<20%) as defined in paragraph 522.
Assay [13] has as its target Glu(A14)Gly(A21)Trp(B25)Des(B30)-Insulin (human).
Assay [14] addresses Glu(A14)His(B16)Des(B30)-Insulin (human).
Assay [15] has as its target Gly(A21)Trp(B16)His(B25)Des(B30)-Insulin (human).
For assay [16], the target named is Leu(B25)Des(B30)-Insulin (human).
Leu(B25)Des(B30)-Insulin (human), sequence (chain, as listed by the source, chain 1 of 2): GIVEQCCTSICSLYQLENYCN
Leu(B25)Des(B30)-Insulin (human), sequence (chain, as listed by the source, chain 2 of 2): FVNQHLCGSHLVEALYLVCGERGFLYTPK

Data on 31 substances can be found in patent publication US20200181223A1.

Where only a bound is given, the exact number is not on record here.

purified pepsin (from porcine stomach mucosa) in simulated gastric fluid, sequence (P00791 60-385): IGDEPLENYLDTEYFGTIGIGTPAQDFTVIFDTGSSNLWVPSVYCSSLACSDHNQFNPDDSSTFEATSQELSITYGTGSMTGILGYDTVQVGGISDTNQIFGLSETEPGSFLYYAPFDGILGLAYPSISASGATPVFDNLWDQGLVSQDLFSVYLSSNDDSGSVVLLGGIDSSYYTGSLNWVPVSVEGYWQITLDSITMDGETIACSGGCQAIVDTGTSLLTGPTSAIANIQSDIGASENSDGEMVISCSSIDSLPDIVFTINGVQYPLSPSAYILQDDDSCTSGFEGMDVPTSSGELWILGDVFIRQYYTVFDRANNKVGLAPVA
Gly(A21)Trp(B16)Des(B30)-Insulin (ligand), sequence (chain): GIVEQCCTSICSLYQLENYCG
Gly(A21)Trp(B16)Des(B30)-Insulin (ligand), sequence (chain): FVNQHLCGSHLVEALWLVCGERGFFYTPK
Gly(A21)Trp(B16)His(B25)Des(B30)-Insulin (ligand), sequence (chain): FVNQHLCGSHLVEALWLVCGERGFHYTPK
Gly(A21)Trp(B16)Trp(B25)Des(B30)-Insulin (ligand), sequence (chain): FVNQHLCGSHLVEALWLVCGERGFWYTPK
Glu(A14)Ile(B16)Val(B25)Des(B30)-Insulin (ligand), sequence (chain): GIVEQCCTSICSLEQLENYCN
Glu(A14)Ile(B16)Val(B25)Des(B30)-Insulin (ligand), sequence (chain): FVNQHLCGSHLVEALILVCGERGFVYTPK
Glu(A14)Glu(B3)Val(B16)Val(B25)Des(B30)-Insulin (ligand), sequence (chain): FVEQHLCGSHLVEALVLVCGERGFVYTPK
Glu(A14)Glu(B3)Val(B16)Des(B30)-Insulin (ligand), sequence (chain): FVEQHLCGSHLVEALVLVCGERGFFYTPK
Glu(A14)Glu(B3)Ile(B16)Ile(B25)Des(B30)-Insulin (ligand), sequence (chain): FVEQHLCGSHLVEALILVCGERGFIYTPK
Glu(A14)Leu(B16)Ala(B25)Des(B30)-Insulin (ligand), sequence (chain): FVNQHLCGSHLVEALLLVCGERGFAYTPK
Glu(A14)Val(B16)Val(B25)Des(B30)-Insulin (ligand), sequence (chain): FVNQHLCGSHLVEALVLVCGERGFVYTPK
Glu(A14)Val(B16)Ile(B25)Des(B30)-Insulin (ligand), sequence (chain): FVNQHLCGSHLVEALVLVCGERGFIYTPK
Glu(A14)Ile(B16)Des(B30)-Insulin (ligand), sequence (chain): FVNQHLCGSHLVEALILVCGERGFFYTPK
Glu(A14)Glu(B16)His(B25)Des(B30)-Insulin (ligand), sequence (chain): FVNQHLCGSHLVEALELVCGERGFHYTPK
Glu(A14)His(B16)Des(B30)-Insulin (ligand), sequence (chain): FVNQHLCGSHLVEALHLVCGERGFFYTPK
Glu(A14)His(B16)His(B25)Des(B30)-Insulin (ligand), sequence (chain): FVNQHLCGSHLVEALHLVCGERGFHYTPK
Glu(A14)Gly(A21)Glu(B3)Val(B16)Val(B25)Des(B30)-Insulin (ligand), sequence (chain): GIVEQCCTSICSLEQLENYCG
Glu(A14)Gly(A21)Glu(B3)Val(B16)Trp(B25)Des(B30)-Insulin (ligand), sequence (chain): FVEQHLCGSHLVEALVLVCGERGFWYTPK
Glu(A14)Gly(A21)Glu(B3)Ile(B16)Trp(B25)Des(B30)-Insulin (ligand), sequence (chain): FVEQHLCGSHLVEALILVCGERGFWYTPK
Glu(A14)Gly(A21)Glu(B3)Val(B25)Des(B30)-Insulin (ligand), sequence (chain): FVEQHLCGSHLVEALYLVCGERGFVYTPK
Glu(A14)Gly(A21)Glu(B3)Ile(B16)Val(B25)Des(B30)-Insulin (ligand), sequence (chain): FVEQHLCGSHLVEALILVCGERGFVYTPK
Glu(A14)Gly(A21)Val(B16)Trp(B25)Des(B30)-Insulin (ligand), sequence (chain): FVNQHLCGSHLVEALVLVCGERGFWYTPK
Glu(A14)His(B16)Ala(B25)Des(B30)-Insulin (ligand), sequence (chain): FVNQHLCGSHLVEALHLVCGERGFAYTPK
Glu(A14)Val(B16)Des(B30)-Insulin (ligand), sequence (chain): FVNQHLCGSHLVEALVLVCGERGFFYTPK
Ala(B25)Des(B30)-Insulin (ligand), sequence (chain): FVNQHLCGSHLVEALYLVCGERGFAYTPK
Glu(A14)Gly(A21)Trp(B25)Des(B30)-Insulin (human), sequence (chain, as listed by the source, chain 2 of 2): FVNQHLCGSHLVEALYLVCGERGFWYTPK

In the case of Ala(B25)Des(B30)-Insulin (ligand), in assay [1], the autophosphorylation activity relative to human insulin (relative to human insulin) came out at 0.17.

Regarding Cathepsin D (enzyme), the percent remaining insulin analog after 30 minutes with Cathepsin D in assay [2] amounted to 52%; in assay [3], 0%; in assay [4], 20%; in [5], 0%; in assay [6], 62%; in [7] it was 59%. The same substance registered a percent remaining insulin analog after 30 minutes with Cathepsin D in [9] of 43%. In [8], the percent remaining insulin after 30 minutes with Cathepsin D amounted to 0%.

In [1], “Glu(A14)Glu(B3)Ile(B16)Ile(B25)Des(B30)-Insulin (ligand)” gave an autophosphorylation activity relative to human insulin (relative to human insulin) of 0.01. The substance further yielded an Insulin-receptor binding affinity relative to human insulin (relative to human insulin) in assay [10] of 0.

In the case of “Glu(A14)Glu(B3)Val(B16)Des(B30)-Insulin (ligand)”, the autophosphorylation activity relative to human insulin (relative to human insulin) in [1] is 0.28. Also, in assay [11], the Insulin-receptor binding affinity relative to human insulin (relative to human insulin) turned out to be 0.4.

Regarding “Glu(A14)Glu(B3)Val(B16)Val(B25)Des(B30)-Insulin (ligand)”, the autophosphorylation activity relative to human insulin (relative to human insulin) in assay [1] was 0.02. In addition, the Insulin-receptor binding affinity relative to human insulin (relative to human insulin) in [10] was found to be 0.

“Glu(A14)Glu(B16)His(B25)Des(B30)-Insulin (ligand)” showed an autophosphorylation activity relative to human insulin (relative to human insulin) in assay [1] of 0.07. Further, the Insulin-receptor binding affinity relative to human insulin (relative to human insulin) in assay [11] was 0.01.

In assay [1], “Glu(A14)Gly(A21)Glu(B3)Ile(B16)Trp(B25)Des(B30)-Insulin (ligand)” had an autophosphorylation activity relative to human insulin (relative to human insulin) of 0.13. In assay [11], this substance gave an Insulin-receptor binding affinity relative to human insulin (relative to human insulin) of 0.12.

On to “Glu(A14)Gly(A21)Glu(B3)Ile(B16)Val(B25)Des(B30)-Insulin (ligand)”, for which, in assay [1], the autophosphorylation activity relative to human insulin (relative to human insulin) is 0.02. Also, in [11], the Insulin-receptor binding affinity relative to human insulin (relative to human insulin) worked out at 0.01.

“Glu(A14)Gly(A21)Glu(B3)Val(B16)Trp(B25)Des(B30)-Insulin (ligand)” gave an autophosphorylation activity relative to human insulin (relative to human insulin) in assay [1] of 0.19. Further, the Insulin-receptor binding affinity relative to human insulin (relative to human insulin) in [11] was 0.21.

In assay [1], “Glu(A14)Gly(A21)Glu(B3)Val(B16)Val(B25)Des(B30)-Insulin (ligand)” registered an autophosphorylation activity relative to human insulin (relative to human insulin) of 0.01. This substance also showed an Insulin-receptor binding affinity relative to human insulin (relative to human insulin) in [11] of 0.01.

The substance “Glu(A14)Gly(A21)Glu(B3)Val(B25)Des(B30)-Insulin (ligand)” registered an autophosphorylation activity relative to human insulin (relative to human insulin) in assay [1] of 0.03. Moreover, in assay [11], the Insulin-receptor binding affinity relative to human insulin (relative to human insulin) is 0.02.

In [1], “Glu(A14)Gly(A21)Trp(B16)Des(B30)-Insulin (ligand)” displayed an autophosphorylation activity relative to human insulin (relative to human insulin) of 0.38. The Insulin-receptor binding affinity relative to human insulin (relative to human insulin) in assay [11] was 0.63.

The substance “Glu(A14)Gly(A21)Val(B16)Trp(B25)Des(B30)-Insulin (ligand)” yielded an autophosphorylation activity relative to human insulin (relative to human insulin) in assay [1] of 0.23. The same substance showed an Insulin-receptor binding affinity relative to human insulin (relative to human insulin) in assay [11] of 0.17.

Take “Glu(A14)His(B16)Ala(B25)Des(B30)-Insulin (ligand)”: the autophosphorylation activity relative to human insulin (relative to human insulin) in [1] turned out to be 0.11.

Consider “Glu(A14)His(B16)Des(B30)-Insulin (ligand)”, for which the autophosphorylation activity relative to human insulin (relative to human insulin) in assay [1] turned out to be 0.29. Further, the Insulin-receptor binding affinity relative to human insulin (relative to human insulin) in assay [11] was 0.36.

The substance “Glu(A14)His(B16)His(B25)Des(B30)-Insulin (ligand)” showed an autophosphorylation activity relative to human insulin (relative to human insulin) in [1] of 0.11. Besides, in assay [11], the Insulin-receptor binding affinity relative to human insulin (relative to human insulin) turned out to be 0.12.

For “Glu(A14)His(B16)His(B25)[16-[4-[[5-[2-[2-[2-[2-[2-(carboxymethyloxy)ethoxy]ethylamino]-2-oxoethoxy]ethoxy]-ethylcarbamoyl]pyrimidin-2-yl]sulfamoyl]phenoxy]hexadecanoic acid]Lys(B29)Des(B30)-insulin (ligand)”, the Insulin receptor B binding affinity relative to human insulin in assay [12] is less than 20%.

In assay [1], “Glu(A14)Ile(B16)Des(B30)-Insulin (ligand)” showed an autophosphorylation activity relative to human insulin (relative to human insulin) of 0.18. Further, the Insulin-receptor binding affinity relative to human insulin (relative to human insulin) in assay [11] is 0.23.

“Glu(A14)Ile(B16)Val(B25)Des(B30)-Insulin (ligand)” gave an autophosphorylation activity relative to human insulin (relative to human insulin) in assay [1] of 0.04. Also, in assay [10], the Insulin-receptor binding affinity relative to human insulin (relative to human insulin) stood at 0.

The substance “Glu(A14)Leu(B16)Ala(B25)Des(B30)-Insulin (ligand)” registered an autophosphorylation activity relative to human insulin (relative to human insulin) in assay [1] of 0.04. This substance also had an Insulin-receptor binding affinity relative to human insulin (relative to human insulin) in [11] of 0.01.

Regarding “Glu(A14)Val(B16)Des(B30)-Insulin (ligand)”, the autophosphorylation activity relative to human insulin (relative to human insulin) in assay [1] amounted to 0.32.

As for “Glu(A14)Val(B16)Ile(B25)Des(B30)-Insulin (ligand)”, the autophosphorylation activity relative to human insulin (relative to human insulin) in assay [1] is 0.01. Further, in assay [10], the Insulin-receptor binding affinity relative to human insulin (relative to human insulin) was 0.

On to “Glu(A14)Val(B16)Val(B25)Des(B30)-Insulin (ligand)”, for which, in assay [1], the autophosphorylation activity relative to human insulin (relative to human insulin) turned out to be 0.03. In assay [10], this substance yielded an Insulin-receptor binding affinity relative to human insulin (relative to human insulin) of 0.

For “Gly(A21)Trp(B16)Des(B30)-Insulin (ligand)”, the autophosphorylation activity relative to human insulin (relative to human insulin) in assay [1] came to 0.4. In assay [11], this substance showed an Insulin-receptor binding affinity relative to human insulin (relative to human insulin) of 0.57.

The substance “Gly(A21)Trp(B16)His(B25)Des(B30)-Insulin (ligand)” displayed an autophosphorylation activity relative to human insulin (relative to human insulin) in assay [1] of 0.35. Further, the Insulin-receptor binding affinity relative to human insulin (relative to human insulin) in [11] is 0.4.

“Gly(A21)Trp(B16)Trp(B25)Des(B30)-Insulin (ligand)” had an autophosphorylation activity relative to human insulin (relative to human insulin) in [1] of 0.38. The substance further displayed an Insulin-receptor binding affinity relative to human insulin (relative to human insulin) in assay [11] of 0.43.

Substance “Insulin analog 41 (Glu(A14)His(B16)His(B25)Des(B30)-insulin) (ligand)” had an Insulin receptor B binding affinity relative to human insulin in assay [12] of less than 20%.

In assay [1], Val(B16)Des(B30)-Insulin (ligand) returned an autophosphorylation activity relative to human insulin (relative to human insulin) of 0.32.

insulin degrading enzyme (IDE): the percent remaining insulin analog after 30 minutes with insulin degrading enzyme, IDE in assay [2] worked out at 2%; in assay [3], 81%; in [13] it was 80%; in [14], 88%; in assay [4], 77%; in assay [5], 98%. For the same substance, the percent remaining insulin analog after 30 minutes with insulin degrading enzyme, IDE in assay [6] was found to be 86%; in assay [7], 86%; in assay [15], 41%; in assay [16], 12%; in assay [9] it was 11%. This substance also came in with a percent remaining insulin after 30 minutes with insulin degrading enzyme, IDE in assay [8] of 38%.

Take “purified pepsin (from porcine stomach mucosa) in simulated gastric fluid (from UniProt P00791) (enzyme)”: the percent remaining insulin analog after 30 minutes in gastric fluid amounted to 30% in assay [2]; 0% in [3]; 52% in [4]; 0% in [5]; 36% in assay [6]; 52% in assay [7]. The same substance displayed a percent remaining insulin analog after 30 minutes in gastric fluid in [9] of 44%. In assay [8], this substance came in with a percent remaining insulin after 30 minutes in gastric fluid of 0%.

For α-Chymotrypsin (enzyme), the percent remaining insulin analog after 120 minutes with α-Chymotrypsin amounted to 58% in [2]; 35% in assay [3]; 99% in [4]; 30% in assay [5]; 34% in assay [6]; 40% in assay [7]. The substance further showed a percent remaining insulin analog after 120 minutes with α-Chymotrypsin in [9] of 31%. The same substance gave a percent remaining insulin after 120 minutes with α-Chymotrypsin in assay [8] of 5%.
